From patent US9073973B2, “Dye conjugates of template-fixed peptidomimetics” (Polyphor LTD., priority 2005, dated 2015)
Numbered stars: 1 amine (or outer) side, 2 acyl side, 3 side chain; on linkers, the order of the positions; unused ones are H or OH. Bridge positions count the residues as written; N and C are the ends. Square brackets hold non-standard residues; d marks the D form. Primed or numbered codes have the meaning given here. Side chains are listed from the residue outwards. Peptide text beside a SMILES is read from it. * marks the point of attachment. FITC′ = 5(6)-fluoresceinthioureido on Lys N-epsilon (Lys(FITC)); Pro(trans-4-NH2) = O=C([C@@H]1C[C@@H](N[*:3])CN1[*:1])[*:2]; 5FAM = O=C1OC2(c3ccc(O)cc3Oc3cc(O)ccc32)c2ccc(C(=O)*)cc21; Dansyl = CN(C)c1cccc2c(S(=O)(=O)*)cccc12; 2Nal = N[C@@H](Cc1ccc2ccccc2c1)C(=O)O; Cit = NC(=O)NCCC[C@H](N)C(=O)O; Ahx = NCCCCCC(=O)O

Assays:
[1] = test system: untransfected 300-19 cells; assay: FACS analysis, untransfected cells (non-specific binding); design: species or system mouse; conditions: FIG. 1; FACS at 530 nm, 10,000 cells; background/non-specific binding
Protocol: (§1) CXCR4 expressing cells (5×10^6/ml) [see references 1, 2 and 3, below] were incubated for 1 hour at 4° C. in a buffer containing HBSS+1% BSA with or without peptidomimetic-dye conjugates at the appropriate concentrations. After this incubation, the cells were washed twice in the same buffer and resuspended at 4×10^6/ml in PBS and kept on ice until measurements were made. All measurements were made on a BD FACSCalibur™ instrument [see ref 4 below] at a wavelength of 530 nm and a total of 10,000 events were counted for each condition. Unlabeled CXCR4 cells and untransfected 300-19 cells were used to establish an appropriate gate for scoring positive and negative events. Four-parameter curve fitting was made from plots of % gated cells vs. concentration of fluorescent compound using Grafit (Erithacus Software).
(§2) The dotted line plot is the histogram obtained from the CXCR4 expressing cells incubated with the compound. The shift to the right on the intensity scale indicates a ˜5-fold increase in fluorescence with >80% of the cells being positive for peptidomimetic-dye conjugates.

CXCR4 expressing cells = target: T1, CXCR4 expressing cells (Homo sapiens, UniProt P61073); assay: FACS analysis, labeling of CXCR4 expressing cells; format: binding; conditions: FIG. 1; FACS fluorescence intensity at 530 nm, 10,000 cells
T1 construct: expressed in transfected cells; host or cells: 300-19 cells (mouse pre-B), CXCR4 transfected
Protocol: as §1, §2

HELA cells = assay: Cytotoxicity assay (MTT reduction); format: cell-based; conditions: 48 hours incubation, peptide 12.5, 25 and 50 μM
Protocol: The cytotoxicity of the peptides to HELA cells (Acc57) and COS-7 cells (CRL-1651) was determined using the MTT reduction assay [see ref. 5 and 6, below]. Briefly the method was as follows: HELA cells and COS-7 cells were seeded at 7.0·10^3 and, respectively, 4.5·10^3 cells per well and grown in 96-well microtiter plates for 24 hours at 37° C. at 5% CO2. At this point, time zero (Tz) was determined by MTT reduction (see below). The supernatant of the remaining wells was discarded, and fresh medium and the peptides in serial dilutions of 12.5, 25 and 50 μM were pipetted into the wells. Each peptide concentration was assayed in triplicate. Incubation of the cells was continued for 48 hours at 37° C. at 5% CO2. Wells were then washed once with PBS, and subsequently 100 μl MTT reagent (0.5 mg/mL in medium RPMI1640 and, respectively, DMEM) was added to the wells. This was incubated at 37° C. for 2 hours and subsequently the medium was aspirated and 100 μl isopropanol was added to each well. The absorbance at 595 nm of the solubilized product was measured (OD595peptide). For each concentration averages were calculated from triplicates. The percentage of growth was calculated as follows: (OD595peptide-OD595Tz-OD595Empty well)/(OD595Tz-OD595Empty well)×100% and was plotted for each peptide concentration. […]

[2] = test system: human red blood cells (hRBC); assay: Hemolysis; format: cell-based; conditions: percent hemolysis; 100 μM peptide, 20% v/v hRBC, 1 hour at 37° C.
Protocol: The peptides were tested for their hemolytic activity against human red blood cells (hRBC). Fresh hRBC were washed three times with phosphate buffered saline (PBS) by centrifugation for 10 min at 2000×g. Peptides at a concentration of 100 μM were incubated with 20% v/v hRBC for 1 hour at 37° C. The final erythrocyte concentration was approximately 0.9×10^9 cells per ml. A value of 0% resp. 100% cell lysis was determined by incubation of the hRBC in the presence of PBS alone and respectively 0.1% Triton X-100 in H2O. The samples were centrifuged and the supernatant was 20-fold diluted in PBS buffer and the optical density (OD) of the sample at […] was measured. The 100% lysis value (0D540H20) gave an OD540 of approximately 1.3-1.8. Percent hemolysis was calculated as follows: (0D540peptide/OD540H20)×100%.

human CXCR4 [3] = target: T2, human CXCR4 (human, UniProt P61073 1-352); assay: cell-based or functional assay
human CXCR4 [4] = target: T2, human CXCR4; assay: FACS at 530 nm, CXCR4 expressing cells against untransfected cells incubated with the dye conjugate
Protocol: as §1, with “(5 ×10^6/ml)” for “(5×10^6/ml)”, “4 ×10^6/ml” for “4×10^6/ml”
The dotted line plot is the histogram obtained from the CXCR4 expressing cells incubated with the compound. The shift to the right on the intensity scale indicates a ~5-fold increase in fluorescence with >80% of the cells being positive for peptidomimetic-dye conjugates.

T2 sequence (P61073 whole entry): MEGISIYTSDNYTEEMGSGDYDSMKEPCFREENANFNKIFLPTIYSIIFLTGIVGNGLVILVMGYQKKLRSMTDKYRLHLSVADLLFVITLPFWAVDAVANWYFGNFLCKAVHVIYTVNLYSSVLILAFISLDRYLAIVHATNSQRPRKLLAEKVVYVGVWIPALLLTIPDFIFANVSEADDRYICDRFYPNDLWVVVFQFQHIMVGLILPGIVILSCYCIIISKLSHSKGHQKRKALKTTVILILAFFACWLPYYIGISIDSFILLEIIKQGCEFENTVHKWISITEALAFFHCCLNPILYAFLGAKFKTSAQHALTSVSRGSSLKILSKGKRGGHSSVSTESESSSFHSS
T1 sequence (P61073 whole entry): as above

Row | Molecule | IC50 (nM) Ca2+ assay (calcium mobilization induced by 10 nM SDF-1) (human CXCR4 [3]) | also measured
1 | N=C(N)NCCC[C@@H]1NC(=O)[C@@H]2CSSC[C@H](NC(=O)[C@H](Cc3c[nH]c4ccccc34)NC(=O)[C@H](CCCNC(=N)N)NC(=O)[C@H](CCCNC(=N)N)NC(=O)[C@H]3CCCN3C(=O)CNC1=O)C(=O)N[C@@H](Cc1ccc(O)cc1)C(=O)N[C@@H](CCCNC(N)=O)C(=O)N[C@@H](CCC(N)=O)C(=O)N1CCC[C@@H]1C(=O)N1C[C@H](NC(=O)CCCCCNC(=O)c3ccc4c(c3)C(=O)OC43c4ccc(O)cc4Oc4cc(O)ccc43)C[C@H]1C(=O)N[C@@H](Cc1ccc(O)cc1)C(=O)N[C@@H](CCCNC(=N)N)C(=O)N[C@@H](CCCNC(N)=O)C(=O)N2 [Example 4] (cyclo(CRG[dP]RRWCY[Cit]Q[dP][Pro(trans-4-NH2)]([Ahx-5FAM])YR[Cit]); disulfide 1-8) | – | cells binding compound (untransfected cells) [1]: 0.7%; increase in fluorescence (CXCR4 expressing vs untransfected cells) (CXCR4 expressing cells): ~5 fold
2 | CN(C)c1cccc2c(S(=O)(=O)NCCCC[C@@H]3NC(=O)[C@H](CCCNC(N)=O)NC(=O)[C@H](Cc4ccc(O)cc4)NC(=O)[C@@H]4CSSC[C@H](NC(=O)[C@H](CCCNC(N)=O)NC(=O)[C@H](CCCNC(=N)N)NC(=O)[C@H](Cc5ccc(O)cc5)NC(=O)[C@@H]5CCCN5C(=O)[C@H]5CCCN5C3=O)C(=O)N[C@@H](CCCNC(=N)N)C(=O)NCC(=O)N3CCC[C@@H]3C(=O)N[C@@H](CCCNC(=N)N)C(=O)N[C@@H](CCCNC(=N)N)C(=O)N[C@@H](Cc3c[nH]c5ccccc35)C(=O)N4)cccc12 [Example 1] (cyclo(YR[Cit]CRG[dP]RRWCY[Cit]K(Dansyl)[dP]P); disulfide 4-11) | – | Cytotoxicity LC50/GI50 Hela cells (HELA cells): 31; Hemolysis at 100 μM [2]: 0
3 | cyclo(YR[Cit]CRG[dP]RRWCY[Cit]Q) (disulfide 4-11; not fully specified (C-terminus), the dye sits on the template; also called Ex. 4) [Example 4] | 13.4 nM | fold increase in fluorescence (human CXCR4 [4]): ~5 fold
4 | cyclo(YK[Cit]CRG[dP]RRWCY[Cit]Q) (disulfide 4-11; not fully specified (residue 2, C-terminus)) [Example 9] | 500 nM | –
5 | cyclo(HHYCRA[dP]FRFCYQK(FITC′)) (disulfide 4-11; not fully specified (C-terminus)) [Example 13] | 29 nM | –
6 | cyclo(YRTCRG[dP]RR[2Nal]CY[Cit]K) (disulfide 4-11; not fully specified (residue 14, C-terminus)) [Example 6] | 37.4 nM | –
7 | cyclo(YRTCRG[dP]RR[2Nal]CY[Cit]K(FITC′)) (disulfide 4-11; not fully specified (C-terminus)) [Example 7] | 0.9 nM | –
8 | cyclo(KR[Cit]CRG[dP]RRWCY[Cit]Q) (disulfide 4-11; not fully specified (residue 1, C-terminus)) [Example 3] | 16.4 nM | –
9 | cyclo(SHYCRA[dP]FRFCYQK(FITC′)) (disulfide 4-11; not fully specified (C-terminus)) [Example 14] | 30.4 nM | –
10 | cyclo(YRKCRG[dP]RRWCY[Cit]Q) (disulfide 4-11; not fully specified (residue 3, C-terminus)) [Example 5] | 4.9 nM | –
11 | cyclo(YR[Cit]CRG[dP]RRWCY[Cit]K(Dansyl)) (disulfide 4-11; not fully specified (C-terminus)) [Example 1] | 122 nM | –
12 | cyclo(HHQCSA[dP]FRYCYQK(FITC′)) (disulfide 4-11; not fully specified (C-terminus)) [Example 11] | 27.5 nM | –
13 | cyclo(YRTCRA[dP]RRYCYQK(FITC′)) (disulfide 4-11; not fully specified (C-terminus)) [Example 16] | 4.2 nM | –
14 | cyclo(YRTCRG[dP]RRYCYQK(FITC′)) (disulfide 4-11; not fully specified (C-terminus)) [Example 15] | 6 nM | –
15 | cyclo(YRYCRA[dP]FRFCYQK(FITC′)) (disulfide 4-11; not fully specified (C-terminus)) [Example 17] | 21.8 nM | –
16 | cyclo(YR[Cit]CRG[dP]RRWCYKQ) (disulfide 4-11; not fully specified (residue 13, C-terminus)) [Example 8] | 9.7 nM | –
17 | cyclo(YHYCSA[dP]FRYCYQK(FITC′)) (disulfide 4-11; not fully specified (C-terminus)) [Example 18] | > 500 nM | –
18 | cyclo(LHTCRA[dP]RRYCYQK(FITC′)) (disulfide 4-11; not fully specified (C-terminus)) [Example 12] | 6.9 nM | –
